Series [1] deals with T1, ParB (Spo0J) (Bacillus subtilis 168) (UniProt P26497).
T1 sequence: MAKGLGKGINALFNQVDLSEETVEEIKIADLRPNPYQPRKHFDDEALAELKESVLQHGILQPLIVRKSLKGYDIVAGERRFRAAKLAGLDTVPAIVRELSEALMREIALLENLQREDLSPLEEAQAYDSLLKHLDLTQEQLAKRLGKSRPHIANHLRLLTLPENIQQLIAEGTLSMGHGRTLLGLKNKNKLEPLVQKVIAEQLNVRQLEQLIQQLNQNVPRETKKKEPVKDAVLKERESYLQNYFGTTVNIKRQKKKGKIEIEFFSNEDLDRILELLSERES
Kind of series: EMSA. The conditions noted are these: 50 mM Hepes-KOH pH 7.5, 100 mM KCl, 2.5 mM MgCl2, 0.1 mg/ml BSA, 1 mM DTT, 20 nM DNA, EMSA also 2.5% Ficoll, room temperature 30 min then ice 5 min, gel at 4 C. For orientation: Mobility shift assays separate free from complexed probe on a gel.

For series [2], the target named is T1, ParB (Spo0J) (Bacillus subtilis 168). Kind of series: fluorescence intensity (Cy3). The conditions noted are these: 50 mM Hepes-KOH pH 7.5, 100 mM KCl, 2.5 mM MgCl2, 0.1 mg/ml BSA, 1 mM DTT, 20 nM DNA, EMSA also 2.5% Ficoll, room temperature 30 min then ice 5 min, gel at 4 C.

As for 147-bp parS, the Kd in series [1] (specific complex, TBM gel, 2.5 mM Mg2+) is 100 nM.

As to “GGTACAAAAAGTGATTGCGGAGCAGCTCAATGTTCGCCAACTTGAGCAGCTGATTCAGCAGTTGAATCAGAATGTTCCACGTGAAACAAAGAAAAAAGAACCTGTGAAAGATGCGGTTCTAAAAGAACGGGAATCCTATCTCCAAAA (double strand) [147-bp parS]”, in series [1], the Kd was determined as 100 nM and the binding entry was “binds”.

Consider Cy3 147-bp parS, for which, in series [2], the Kd turned out to be 240 nM.

For the substance “TTTTGGAGATAGGATTCCCGTTCTTTTAGAACCGCATCTTTCACAGGTTCTTTTTTCTTTGTCTCCCTGGGCACGTTCTGATTCAACTGCTGAATCAGCTGCTCAAGTTGGCGAACATTGAGCTGCTCCGCAATCACTTTTTGTACC (double strand) [147-bp non-specific (scrambled parS)]”, the binding entry in series [1] was “binds”.

Take “TTTTGGAGATAGGATTCCCGTTCTTTTAGAACCGCATCTTTCACAGGTTCTTTTTTCTTTGTTTCACGTGGAACATTCTGATTCAACTGCTGAATCAGCTGCTCAAGTTGGCGAACATTGAGCTGCTCCGCAATCACTTTTTGTACC (double strand) [Cy3 147-bp parS]”: the Kd in series [2] was 240 nM.

In the case of “TTTTGGAGATAGGATTCCCGTTCTTTTAGAACCGCATCTTTCACAGGTTCTTTTTTCTTTGTCTCCCTGGGCACGTTCTGATTCAACTGCTGAATCAGCTGCTCAAGTTGGCGAACATTGAGCTGCTCCGCAATCACTTTTTGTACC (double strand) [Cy3 147-bp non-specific (scrambled parS)]”, in series [2], the Kd was 275 nM.

“Cy3 147-bp non-specific (scrambled parS)”: the Kd in series [2] (apparent Kd of ParB2, Hill h = 3.4 ± 0.4, 2.5 mM Mg2+) was determined as 275 nM.

The values above are taken from PMC4333373.
